In patent US20250154240A1, “ANTI-HUMAN CXCL1 ANTIBODY” (CHIOME BIOSCIENCE INC., priority 2022, published 2025):

Columns and labels:
[1] = test system: OCUM-12 gastric cancer cell line; assay: Antitumor activity test, model with OCUM-12 orthotopic transplantation (prevention model); type: in vivo, mouse; conditions: 400 μg/head intraperitoneally twice a week, 3 weeks; compared to hIgG1 antibody
Protocol: A model with OCUM-12 orthotopic transplantation was prepared to evaluate the above 4 types of candidate antibodies for their in vivo CXCR2 migration inhibitory activity and antitumor activity in a xenograft model with OCUM-12 orthotopic transplantation.
For use as mice, female nude mice (BALB/cAJcl-nu/nu) at 5 to 6 weeks of age were purchased from CLEA Japan, Inc., Japan. For use as human cancer cells, a gastric cancer cell line, OCUM-12, was provided by University Public Corporation Osaka, Japan.
OCUM-12 cells were cultured in D-MED medium (FUJIFILM Wako Pure Chemical Corporation, Japan) supplemented with 10% fetal bovine serum (FBS; Sigma-Aldrich Corporation) and 1/100 volumes of a penicillin-streptomycin mixture (Nacalai Tesque, Inc., Japan). The cells to be transplanted were detached with 0.25% trypsin/0.02% EDTA (Thermo Fisher Scientific) and washed with PBS, and 4× 10^5 cells per mouse were transplanted into the gastric wall of each mouse.
On the day following the above transplantation, the mice were randomized into groups (8 or 6 mice per group) and intraperitoneally administered with PBS as a control and with 4 types of candidate antibodies (1A-7H10, 4A-2F7, 5A-5E11 and 028-8-12) and 3 types of non-candidate antibodies (1A-3C6, 1A-2H3 and 4A-5B11) at a dose of 20 mg/kg. In addition, mouse IgG1 as a control was intraperitoneally administered at a dose of 20 mg/kg, and 3 types of antibodies (5A-5E11, 1A-4H10 and 4A-7G7) among the candidate antibodies were intraperitoneally administered at a dose of 20 mg/kg. The administration of these antibodies was then continued with a frequency of twice a week until the completion of the test. After 3 weeks had passed from the transplantation, the mice were sacrificed, and the short- and long-axis diameters of tumors formed in their gastric walls were each measured with a caliper. The tumor size was calculated according to the following: 1/2 short-axis diameter (mm)×1/2 long-axis diameter (mm)×3.14.
(§1) Navarixin is among small molecular compounds that act on CXCR2 and inhibit CXCL1-CXCR2 signaling. […] Then, using a model with OCUM-12 orthotopic transplantation, the migration inhibition of CXCR2-expressing cells and antitumor activity were evaluated in vivo for Navarixin. As a vehicle, ultrapure water containing 20% 2-hydroxypropyl-β-cyclodextrin (FUJIFILM Wako Pure Chemical Corporation, Japan) was used. Navarixin (MedChemExpress) was dissolved in ultrapure water containing 20% 2-hydroxypropyl-β-cyclodextrin, and orally administered at a dose of 100 mg/kg/day in a schedule of once a day for 5 consecutive days, followed by a 2-day withdrawal.
The humanized antibodies were evaluated for their in vivo antitumor activity and CXCR2 migration inhibitory activity in a xenograft model with OCUM-12 orthotopic transplantation. Procedures for the evaluation are shown below.
For use as mice, female nude mice (BALB/cAJcl-nu/nu) at 5 to 6 weeks of age were purchased from CLEA Japan, Inc., Japan. For use as human cancer cells, gastric cancer cell line, OCUM-12, was provided by Osaka Metropolitan University, Japan.
OCUM-12 cells were cultured in D-MED medium (FUJIFILM Wako Pure Chemical Corporation, Japan) supplemented with 10% fetal bovine serum (hereinafter abbreviated as FBS; Sigma-Aldrich Corporation) and 1/100 volumes of a penicillin-streptomycin mixture (Nacalai Tesque, Inc., Japan). The cells to be transplanted were detached with 0.25% trypsin/0.02% EDTA (Thermo Fisher Scientific) and washed with PBS, and 4×10^5 cells per mouse were transplanted into the gastric wall of each mouse. On the day following the transplantation, the mice were randomized into groups (8 mice per group) and intraperitoneally administered with test antibodies at a dose of 400 μg/head. PBS was intraperitoneally administered in a volume of 200 μL with a frequency of twice a week for 3 weeks, starting from the day following the transplantation. […]

CXCR2-expressing cells = assay: In vivo migration inhibitory activity test on CXCR2-expressing cells, OCUM-12 orthotopic transplantation (prevention model); parameters: species or system mouse; conditions: 400 μg/head intraperitoneally twice a week, 3 weeks; compared to hIgG1 antibody
From the text: (§2) The stomachs after measurement of the tumor size in [3-1] above were excised and fixed overnight at room temperature with a 10% neutral buffered formalin solution (Wako Pure Chemical Industries, Ltd., Japan), followed by replacement with PBS. Then, paraffin embedding and section preparation were outsourced to Applied Medical Research Laboratory, Japan. The prepared gastric tumor sections were immunohistologically stained with an anti-CXCR2 antibody to evaluate in vivo CXCR2 cell migration inhibitory activity. The sections were deparaffinized and rehydrated, and then treated to inactivate endogenous peroxidase. After antigen activation treatment, the sections were blocked with PBS containing 2% skimmed milk and 0.1% Tween-20, and reacted overnight at 4° C. with an anti-CXCR2 antibody (Biorbyt) as a primary antibody, which had been diluted to 0.3 μg/mL with the blocking solution. After washing with PBS containing 0.1% Tween-20, the sections were reacted at room temperature for 1 hour with an HRP-labeled goat anti-rabbit IgG antibody (Abcam) as a secondary antibody. After washing with a washing solution, a simple stain DAB solution (5052, Nichirei Corporation, Japan) was used to cause color development. After images of the stained tissues were captured with an Explore (Olympus Corporation, Japan), imaging software CellSens (Olympus Corporation, Japan) was used to calculate CXCR2-positive cells per unit area.
as §1
as §2, with “after measurement were excised” for “after measurement of the tumor size in [3-1] above were excised”, “and 0.1% Tween-20 (hereinafter referred to as the blocking solution), and reacted” for “and 0.1% Tween-20, and reacted”, “been diluted 1667-fold with the” for “been diluted to 0.3 μg/mL with the”, “to calculate positive cells per” for “to calculate CXCR2-positive cells per”
The dose-response relationship between antibody dose and in vivo antitumor activity or CXCR2 migration inhibitory activity was evaluated in a xenograft prevention model with OCUM-12 orthotopic transplantation. A prevention model is a model designed to start antibody administration from the day following tumor transplantation. […]

Molecule	Antitumor activity (tumor area) [1]	Migration of CXCR2-expressing cells (positive cells per unit area) (CXCR2-expressing cells)
Hu1A-7H10: humanized antibody VH1/VL1; VH SEQ ID NO: 68, VL SEQ ID NO: 70 (antibody, V domains shown) VH: QVTLKESGPVLVKPTETLTLTCTVSGFSSTTYGVHWVRQPPGKALEWLGVIWAGGSTNYNAALMSRLTISKDTSKSQVVLTMTNMDPVDTATYYCATQYHYPFAYWGQGTLVTVSS VL: DIQMTQSPSSLSASVGDRVTITCKASENVGIYVSWYQQKPGKAPKLMIYGASNRNTGVPSRFSGSGSGTDFTLTISSLQPEDFATYYCGQSYSYPLTFGGGTKVEIK	significantly suppress an increase in the tumor area	significantly suppress the migration of CXCR2-expressing cells
Hu4A-2F7: humanized antibody VH1/VL1; VH SEQ ID NO: 72, VL SEQ ID NO: 74 (antibody, V domains shown) VH: QVTLKESGPALVKPTQTLTLTCTFSGFSLSTSGMGVDWIRQPPGKALEWLAHIWWDDDKYYNPSLKSQLTISKDTSKNQVVLTMTNMDPVDTATYYCARSYGYDMDYYAMDYWGQGTTVTVSS VL: DIQMTQSPSSLSASVGDRVTITCRASQEISGYLSWLQQKPGKAPKRLIYAASTLSSGVPSRFSGSGSGTDFTLTISSLQPEDFATYYCLQYASYPPWTFGGGTKVEIK	significantly suppress an increase in the tumor area	significantly suppress the migration of CXCR2-expressing cells
modified human antibody 028-8-12: human antibody 028-8-12 with amino acid modifications in CDR and VL regions; VH SEQ ID NO: 63, VL SEQ ID NO: 67 (antibody, V domains shown) VH: EVQLLESGGGLVQPGGSLRLSCAASGFTFSELSMSWVRQAPGKGLEWVSAISGSGGSTYYASSVKGRFTISRDNSKNTLYLQMNSLRAEDTAVYYCAREGGRLEPYYYYYAMDVWGQGTPVTVSS VL: DIQMTQSPSSLSASVGDRVTITCRASQSISDNLHWYQQKPGKAPKLLIYDASNLESGVPSRFSGSGSGTDFTLTISSLQPEDFATYYCQQYYSTPLTFGQGTKLEIK	significantly suppress an increase in the tumor area	significantly suppress the migration of CXCR2-expressing cells
